Substrate in this series: CC(=O)N[C@H](C(=O)N[C@@H](CC(=O)O)C(=O)N[C@H](C(=O)N[C@@H](C)C(=O)N[C@@H](CC(=O)O)C(=O)Nc1ccc([N+](=O)[O-])cc1)C(C)C)C(C)C
Put plainly: In vitro proteolysis assay with chromogenic para-nitroaniline-labeled peptide substrate (absorbance 405 nm). Particulars: other: pNA substrate cleaved by N-His Ich-1, 30° C. Format: biochemical, Human. The source says: To identify peptide substrates for Ich-1, candidate peptides were used in in vitro proteolysis assays with recombinant Ich-1 protein. Human Ich-1 enzyme (the nucleotide and amino acid sequences for which are disclosed in Wang, L., et al. (1994) Cell 78:739-750) was expressed recombinantly with an N-terminal polyhistidine tag by methods described in Kamens, J., et al. (1995) J. Biol. Chem. 270:15250-15256. The resulting enzyme, called N-His Ich-1, contains Ich-1 amino acid residues 167-435, with an initiator and polyhistidine tag fused to the amino terminus. […]
A peptidic aldehyde inhibitor of Ich-1 was designed based upon the optimal peptide substrate (Peptide 43) described in Example 3. […] The ability of this peptidic aldehyde inhibitor to inhibit N-His Ich-1 activity was determined in in vitro proteolysis assays using a chromogenic para-nitroaniline-labeled peptide substrate. […]
To perform the proteolysis assay, N-His Ich-1 was preincubated for 30 minutes at 30° C. in 160 μl of a reaction buffer containing 100 mM sodium acetate (pH 6.2), 20% (v/v) glycerol, 5 mM DTT, 0.5 mM EDTA, […]. […] The incubation of N-His Ich-1 with the peptide substrate at 30° C. was continued, and the catalytic hydrolysis of peptide substrate was monitored by the change in absorbance of the samples at 405 nm due to release of pNA as a function of time. […]

B1: N-His Ich-1 (Homo sapiens) (protein)
chain 1: YQTHFQLAYRLQSRPRGLALVLSNVHFTGEKELEFRSGGDVDHSTLVTLFKLLGYDVHVLCDQTAQEMQEKLQNFAQLPAHRVTDSCIVALLSHGVEGAIYGVDGKLLQLQEVFQLFDNANCPSLQNKPKMFFIQACRGDETDRGVDQQD
chain 2: GKNHAGSPGCEESDAGKEKLPKMRLPTRSDMICGYACLKGTAAMRNTKRGSWYIEALAQVFSERACDMHVADMLVKVNALIKDREGYAPGTEFHRCKEMSEYCSTLCRHLYLFPGHPPT
notes: contains Ich-1 amino acid residues 167-435, with an initiator and polyhistidine tag fused to the amino terminus; initiator (Met) + polyhistidine tag (N); made in house
For B1, the Km is 42 µM.

The Km is the substrate concentration at which the rate is half of its maximum.
